Tested on: human plasma
Assay: Thrombelastography of human plasma exposed to Crotalus atrox venom and/or tPA (Example II)
Type: biochemical
Details: 0.5 μg/ml venom 5 min and/or 100 IU/ml tPA
Protocol: Two hundred mg of lyophilized, pooled venom was obtained from four western diamondback rattlesnakes (Crotalus atrox) for experimentation. Venom was reconstituted in calcium-free phosphate buffered saline (PBS, Sigma-Aldrich, Saint Louis, Mo., USA) at a concentration of 20 mg/ml, aliquoted, and then stored at −80° C. until experimentation at the University of Arizona.
Pooled normal plasma (George King Bio-Medical, Overland Park, Kans., USA) anticoagulated with sodium citrate was rapidly thawed at 37° C. and used for experimentation. To assess the effects of pretreatment of antifibrinolytic plasma proteins with iron, CO, or both, 1% additions of PBS, ferric chloride (FeCl3, 99.9% pure, Sigma-Aldrich, Saint Louis, Mo., USA) in PBS, or CORM-2 (tricarbonyldichlororuthenium (II) dimer, a CO releasing molecule, Sigma-Aldrich, Saint Louis, Mo., USA) dissolved in dimethyl sulfoxide (DMSO, Sigma-Aldrich, Saint Louis, Mo., USA) were used. […] Plasma was exposed to these various agents for at least 5 min prior to incubations with venom.
The final volume for all subsequently described plasma sample mixtures was 359.4 μl. […] The following elastic modulus-based parameters previously described (see, Nielsen V G, Pretorius E. Blood Coagul Fibrinolysis 2014; 25:695-702) were determined: time to maximum rate of thrombus generation (TMRTG): this is the time interval (min) observed prior to maximum speed of clot growth; maximum rate of thrombus generation (MRTG): this is the maximum velocity of clot growth observed (dynes/cm^2/sec); total thrombus generation (TTG, dynes/cm^2), the final viscoelastic resistance observed after clot formation; time to maximum rate of lysis (TMRL, min), maximum rate of lysis (MRL, dynes/cm^2/sec) and CLT (min). […]

[1] = vs control conditions (combination: vs all other conditions)

B1: tPA: tissue type plasminogen activator, 580 IU/μg, Genentech; 100 IU/ml final concentration (protein, UniProt P00750 36-562, looked up)
Tissue-type plasminogen …: SYQVICRDEKTQMIYQQHQSWLRPVLRSNRVEYCWCNSGRAQCHSVPVKSCSEPRCFNGGTCQQALYFSDFVCQCPEGFAGKCCEIDTRATCYEDQGISYRGTWSTAESGAECTNWNSSALAQKPYSGRRPDAIRLGLGNHNYCRNPDRDSKPWCYVFKAGKYSSEFCSTPACSEGNSDCYFGNGSAYRGTHSLTESGASCLPWNSMILIGKVYTAQNPSAQALGLGKHNYCRNPDGDAKPWCHVLKNRRLTWEYCDVPSCSTCGLRQYSQPQFRIKGGLFADIASHPWQAAIFAKHRRSPGERFLCGGILISSCWILSAAHCFQERFPPHHLTVILGRTYRVVPGEEEQKFEVEKYIVHKEFDDDTYDNDIALLQLKSDSSRCAQESSVVRTVCLPPADLQLPDWTECELSGYGKHEALSPFYSERLKEAHVRLYPSSRCTSQHLLNRTVTDNMLCAGDTRSGGPQANLHDACQGDSGGPLVCLNDGRMTLVGIISWGLGCGQKDVPGVYTKVTNYLDWIRDNMRP
[1]
  maximum rate of thrombus generation (MRTG): did not decrease
  total thrombus generation (TTG): significantly decreased
Vs control conditions (combination: vs any other condition)
  time to maximum rate of thrombus generation (TMRTG): did not prolong
